{"source": "paper PMC10282599", "about": "“Al-induced CsUGT84J2 enhances flavonol and auxin accumulation to promote root growth in tea plants” (Horticulture Research, 2023)", "proteins": {"B1": {"name": "rCsUGT84J2 (TEA000239) (Camellia sinensis) (protein)", "chain": "MAAMEKKEEIHVLMVAFSSQGHINPMLRLAKRLHSKGLHVTLATTEIARHRMLTSSSATTTAVAANSIDGISLAFFSDGLSLDYDRKTNLDHYMDSLGRAGPANLSSIILHHHSHGGRKFSCIVTNPFIPWAADVAAEHGIPCALLWIQPCSLYSIYYRFYNHLNQFPSSANPNMSVELPGLPLLNTEDLPSFVLPSNPFGSFPKLFCGLFQNMQKMKWVLANSFHELESQAIDSMFDIHPVLPIGPLVPPSILGEDQAVDAGVEMWKSEDNCIEWLDQQQPNSVIYVSFGSVVILSPLQMESIATGLKNCNRPFLWVVKKSDYTAKEGEGQLPLGFLEETKGRGLVVQWSPQIKVLMNPAVGCFLTHCGWNSMLETIAAGVPVIAYPQWTDQPTNAKLMAEVLRVGVRLRPNQDGVVTNEEVERRIEDVMCGPEAEEFREKAAELKVAARVAVADGGSSDRNIQLFVDEIIGDSST"}}, "test_in_all_cases": "HPLC of glucoside product", "assay_type_in_all_cases": "biochemical, Camellia sinensis", "key": {"[1]": {"substrate": "O=C(O)/C=C/c1ccc(O)cc1", "details": "UDP-glucose as sugar donor; optimum pH 6.5, 40 °C; pH 6.5; 40.0 °C"}, "[2]": {"substrate": "O=C(O)Cc1c[nH]c2ccccc12", "details": "UDP-glucose as sugar donor; optimum pH 6.5, 30 °C; pH 6.5; 30.0 °C"}, "[3]": {"substrate": "O=c1c(O)c(-c2ccc(O)cc2)oc2cc(O)cc(O)c12", "details": "UDP-glucose as sugar donor; optimum pH 9.5, 40 °C; pH 9.5; 40.0 °C"}}, "data": [{"protein": "B1", "values": [{"measurement": "Km", "setting": "[1]", "result": 0.243, "unit": "µM"}, {"measurement": "Km", "setting": "[2]", "result": 0.522, "unit": "µM"}, {"measurement": "Km", "setting": "[3]", "result": 0.127, "unit": "µM"}]}]}
